These results are taken from patent publication US20250332277A1 (Eli Lilly, published 2025).

In experiment [1] the target is T1, human PTK-7 on cells (OV90-PTK-7, NCI-H446, OVCAR-3) (human, UniProt Q13308 31-1070).
T1 construct: OV90-PTK-7 is an ovarian tumour line engineered to overexpress human PTK-7; NCI-H446 and OVCAR-3 express it endogenously; also called PTK-7 receptor; CCK-4
T1 sequence: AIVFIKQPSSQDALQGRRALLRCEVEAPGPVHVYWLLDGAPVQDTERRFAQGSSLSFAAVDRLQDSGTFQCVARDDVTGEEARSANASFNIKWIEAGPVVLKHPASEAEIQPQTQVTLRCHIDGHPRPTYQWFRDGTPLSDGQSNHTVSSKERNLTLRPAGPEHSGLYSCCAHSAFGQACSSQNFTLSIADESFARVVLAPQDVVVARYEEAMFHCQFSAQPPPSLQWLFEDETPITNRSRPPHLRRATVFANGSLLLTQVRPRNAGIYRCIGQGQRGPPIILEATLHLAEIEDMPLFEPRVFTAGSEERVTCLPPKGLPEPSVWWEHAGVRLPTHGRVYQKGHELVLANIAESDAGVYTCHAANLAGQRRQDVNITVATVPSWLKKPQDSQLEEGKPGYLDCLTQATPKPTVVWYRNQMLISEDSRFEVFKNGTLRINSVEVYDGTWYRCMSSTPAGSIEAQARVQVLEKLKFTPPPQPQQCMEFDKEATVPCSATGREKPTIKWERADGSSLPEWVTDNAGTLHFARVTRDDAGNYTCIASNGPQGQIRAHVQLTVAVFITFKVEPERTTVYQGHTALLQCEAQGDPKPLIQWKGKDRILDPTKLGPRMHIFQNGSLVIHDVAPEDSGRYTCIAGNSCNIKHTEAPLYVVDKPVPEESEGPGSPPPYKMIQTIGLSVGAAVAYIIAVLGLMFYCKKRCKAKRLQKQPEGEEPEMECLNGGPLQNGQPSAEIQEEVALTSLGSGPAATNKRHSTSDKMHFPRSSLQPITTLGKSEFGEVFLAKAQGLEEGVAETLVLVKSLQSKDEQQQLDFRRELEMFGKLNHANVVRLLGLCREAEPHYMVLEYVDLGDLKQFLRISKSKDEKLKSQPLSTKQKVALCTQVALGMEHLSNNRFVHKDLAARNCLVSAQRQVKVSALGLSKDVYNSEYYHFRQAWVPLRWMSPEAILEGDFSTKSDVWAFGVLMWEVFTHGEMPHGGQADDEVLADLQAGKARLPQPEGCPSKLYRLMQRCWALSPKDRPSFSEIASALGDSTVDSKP
In words: flow cytometry, NCI-H446 cells. Here is the method: (§1) OV90-PTK-7, overexpressing engineered ovarian tumor line representing high expression, NCI-H446 human lung cancer cells representing medium endogenous expression and OVCAR-3 human ovarian cancer cells representing low endogenous expression. […] OV90 parental cells and Namalwa-luc-GFP cells were selected as the PTK-7 negative cell lines. Antibody binding was quantified via flow cytometry and both the EC₅₀ of the binding curves and the maximum binding MFI for each antibody were recorded.
(§2) Cells were dissociated using non-enzymatic dissociation buffer for 5 min at 37° C. Cells were counted and aliquoted to a V-bottom polypropylene 96-well plate at 10⁵ cells/well. Cells were centrifuged at 1800 rpm×3 min and the supernatant discarded. An 11-point antibody dilution series was prepared in assay buffer (1×PBS containing 5% FBS) starting at 300 nM and diluting 1:4 down. The dilution series was added to cells at 100 μL/well and mixed by pipetting. Several untreated control wells/cell lines were prepared in assay buffer alone. Cells and antibodies were incubated at 4° C. on an orbital shaker for 1 hour. After incubation, the assay plates were centrifuged and washed twice with 300 μL/well of assay buffer. Cell pellets were then stained with a 1:500 dilution of Alexa647 conjugated mouse anti-human IgG secondary antibody in assay buffer, at 100 μL/well. Assay plates were incubated shaking in the dark at 4° C. for 1 hour. After incubation, plates were centrifuged, and the cells were washed twice with 300 μL/well of assay buffer. A 1:2000 dilution of Zombie Green viability marker in 1×PBS was aliquoted to the cells at 100 μL/well and plates were incubated in the dark for 10 min shaking at room temperature. Cell pellets were then washed 1× with assay buffer and fixed with 200 μL/well of 4% paraformaldehyde in 1×PBS in the dark at room temperature for 15 min. Cells were centrifuged and washed before resuspending in 100 μL of assay buffer for acquisition on Attune Cytpix Cytometer.
(§3) Cells were acquired on an Attune Cytpix Cytometer and FCS files generated using Attune™ Cytometric Software (v. 6.0.1). FCS files were then analyzed on FlowJo (v10.8.1).
(Flow cytometry measures light scatter and fluorescence of single cells or particles in a stream.)

Experiment [2] has as its target T1, human PTK-7 on cells (OV90-PTK-7, …). Description: flow cytometry, OV90-PTK-7 cells. Here is the method: as §1, §2, §3
Experiment [3] has the same target. Description: flow cytometry, OVCAR3 cells. Here is the method:
as §1, §2, §3

For experiment [4] the target is unchanged. In words: flow cytometry, NCI-H446 cells; against cofetuzumab. Here is the method:
as §1
as §2, with “Cells were centrifuged and washed before resuspending in 100 μL of assay buffer for acquisition on Attune Cytpix Cytometer.” left out
as §3

Experiment [5] shares this target. In words: flow cytometry, OVCAR3 cells; against cofetuzumab. Here is the method:
as §1
as §2, with “Cells were centrifuged and washed before resuspending in 100 μL of assay buffer for acquisition on Attune Cytpix Cytometer.” left out
as §3

The target is the same in experiment [6]. In words: flow cytometry, OV90-PTK-7 cells; against cofetuzumab. The protocol: as §1
as §2, with “Cells were centrifuged and washed before resuspending in 100 μL of assay buffer for acquisition on Attune Cytpix Cytometer.” left out
as §3

Experiment [7] shares this target. Description: cell-based or functional assay.
Experiment [8] has as its target T2, recombinant human PTK7 (Acro Biosystems Cat. No. PT7-H52H3) (human, UniProt Q13308 31-704).
T2 construct: Bought recombinant protein; also called human PTK7 analyte
T2 sequence: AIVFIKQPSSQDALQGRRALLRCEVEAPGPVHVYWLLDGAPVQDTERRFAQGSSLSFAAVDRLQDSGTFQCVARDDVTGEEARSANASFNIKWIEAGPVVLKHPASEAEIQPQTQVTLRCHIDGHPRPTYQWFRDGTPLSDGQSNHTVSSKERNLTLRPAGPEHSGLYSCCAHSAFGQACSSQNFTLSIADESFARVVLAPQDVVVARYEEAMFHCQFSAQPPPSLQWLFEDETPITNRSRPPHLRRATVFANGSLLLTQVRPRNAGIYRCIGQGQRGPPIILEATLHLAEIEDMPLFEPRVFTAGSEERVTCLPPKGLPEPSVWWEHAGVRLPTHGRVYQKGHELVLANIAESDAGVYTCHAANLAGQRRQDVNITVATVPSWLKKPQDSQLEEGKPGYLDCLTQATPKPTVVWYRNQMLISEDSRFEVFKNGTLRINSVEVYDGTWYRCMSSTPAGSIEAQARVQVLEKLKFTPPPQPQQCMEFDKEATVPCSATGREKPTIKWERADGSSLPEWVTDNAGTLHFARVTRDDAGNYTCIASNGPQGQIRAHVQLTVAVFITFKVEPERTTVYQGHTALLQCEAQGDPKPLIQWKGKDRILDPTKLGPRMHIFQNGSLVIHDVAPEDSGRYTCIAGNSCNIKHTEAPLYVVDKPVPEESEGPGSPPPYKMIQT
Description: SPR, Biacore 8K+, ADC captured by anti-human Fc, human PTK7 as analyte, 37 C, 1:1 model. Here is the method: A Biacore 8K+ instrument (Cytiva, Marlborough, MA) was used to determine kinetics and affinity parameters for the binding interactions of ADCs binding to recombinant human PTK7 (Acro Biosystems Cat. No. PT7-H52H3, Newark, DE).
In each analysis cycle, a different ADC was captured on flow cell 2 of each channel by injecting a 5 μg/mL solution at 10 μL/min for 2 minutes. After capture, the same analyte was injected on flow cells 1 and 2 in all 8 channels for 2 minutes at 30 μL/min and dissociation was monitored for 10 minutes. After dissociation, all surfaces were regenerated with three consecutive 1-minute injections of 75 mM phosphoric acid at 10 μL/min. ADC capture and analyte cycles were repeated to obtain human PTK7 analyte binding of each ADC at analyte concentrations of 0, 2.47, 7.41, 22.2, 66.7, 200, and 600 nMs.
Sensorgram data were reference subtracted and blank subtracted, then globally fit with the default 1:1 binding model in Biacore Insight Evaluation Software v3.0.12.15655, as shown in Table 4.
Background: SPR reads the build-up and loss of mass on a sensor chip optically.

B1: Cofetuzumab (antibody, V domains shown)
VH: QVQLVQSGPEVKKPGASVKVSCKASGYTFTDYAVHWVRQAPGKRLEWIGVISTYNDYTYNNQDFKGRVTMTRDTSASTAYMELSRLRSEDTAVYYCARGNSYFYALDYWGQGTSVTVSS
VL: EIVLTQSPATLSLSPGERATLSCRASESVDSYGKSFMHWYQQKPGQAPRLLIYRASNLESGIPARFSGSGSGTDFTLTISSLEPEDFAVYYCQQSNEDPWTFGGGTKLEIK
For orientation: EC50 means the midpoint of the concentration-response curve. On to B1, for which the “Average Max MFI” value in experiment [1] was determined as 26800 MFI; in experiment [2] it was 68500 MFI; in experiment [3], 21900 MFI. Also, the EC50 in experiment [1] is 0.54 nM; in experiment [2], 1.41 nM; in experiment [3], 0.7 nM.

B2: Ab4 (antibody, human IgG1, kappa, L234A L235A, V domains shown)
VH: EVQLVESGGGLVKPGGSLRLSCAASGFTFSSYSMNWVRQAPGKGLEWVSSIDSSSSFIYYADSVKGRFTISRDNAKNSLYLQMNSLRAEDTAVYYCARGTGLFDFWGQGTLVTVSS
VL: EIVLTQSPGTLSLSPGERATLSCRASQSFSSSYLAWYQQKPGQAPRLLIYGASSRATGIPDRFSGSGSGTDFTLTISRLEPEDFAVYYCQQYGRTPWTFGQGTKVEIKR
notes: Fully human antibody; also called Antibody 4; PTK-7 Antibody Ab4
Regarding B2, the “% of Cofetuzumab (Average Max MFI)” value was found to be 97.4% in experiment [4], 75% in experiment [5] and 102% in experiment [6]. Also, the “Average Max MFI” value in experiment [1] was 26100 MFI; in experiment [2], 69900 MFI; in experiment [3], 16400 MFI. The EC50 in experiment [1] turned out to be 0.54 nM; in experiment [2] it was 1.28 nM; in experiment [3], 0.95 nM.

B3: Ab1 (antibody, human IgG1, kappa, L234A L235A, V domains shown)
VH: EVQLVESGGGLVKPGGSLRLSCAASGFTFSSYIMNWVRQAPGKGLEWVSSISSSSTFIYYADSVKGRFTISRDNAKNSLYLQMNSLRAEDTAVYYCAKGFDYWGQGTLVTVSS
VL: DIQLTQSPSFLSASVGDRVTITCRASQDISSYLVWYQQKPGKAPKLLIYAASTLQSGVPSRFSGSGSGTEFTLTISSLQPEDFATYYCQQLNTYPRTFGQGTKVEIKR
notes: Fully human antibody; also called Antibody 1; PTK-7 Antibody Ab1
With B3, the “% of Cofetuzumab (Average Max MFI)” value in experiment [4] was determined as 86.3%; in experiment [5] it was 71.6%; in experiment [6], 96.5%. Also, the “Average Max MFI” value in experiment [1] was found to be 23200 MFI; in experiment [2] it was 66100 MFI; in experiment [3], 15700 MFI. For the same molecule, the figures for the EC50 in experiment [1], in experiment [2] and in experiment [3] were 0.7 nM, 1.25 nM and 2.81 nM, respectively.

B4: Ab2 (antibody, human IgG1, kappa, L234A L235A, V domains shown)
VH: QVQLQESGPGLVKPSETLSLTCTVSGGSISTYYWSWIRQPAGKGLEWIGRIYTSGLTNYNPSLKSRVTMSVDTSKNQFSLKLSSVTAADTAVYYCARDPHYYDGSGFDYWGQGTLVTVSS
VL: not shown
notes: Fully human antibody; also called Antibody 2
Turning to B4, the “% of Cofetuzumab (Average Max MFI)” value in experiment [4] came out at 97.6%; in experiment [5], 87.7%; in experiment [6], 103%. Also, the “Average Max MFI” value in experiment [1] is 26200 MFI; in experiment [2] it was 70500 MFI; in experiment [3], 19200 MFI. In addition, the EC50 worked out at 0.6 nM in experiment [1] and 1.83 nM in experiment [2].

B5: Ab1-PSAR10-VA-exatecan (other)
heavy: EVQLVESGGGLVKPGGSLRLSCAASGFTFSSYIMNWVRQAPGKGLEWVSSISSSSTFIYYADSVKGRFTISRDNAKNSLYLQMNSLRAEDTAVYYCAKGFDYWGQGTLVTVSSASTKGPSVFPLAPSSKSTSGGTAALGCLVKDYFPEPVTVSWNSGALTSGVHTFPAVLQSSGLYSLSSVVTVPSSSLGTQTYICNVNHKPSNTKVDKRVEPKSCDKTHTCPPCPAPEAAGGPSVFLFPPKPKDTLMISRTPEVTCVVVSVSHEDPEVKFNWYVDGVEVHNAKTKPREEQYNSTYRVVSVLTVLHQDWLNGKEYKCKVSNKALPAPIEKTISKAKGQPREPQVYTLPPSREEMTKNQVSLTCLVKGFYPSDIAVEWESNGQPENNYKTTPPVLDSDGSFFLYSKLTVDKSRWQQGNVFSCSVMHEALHNHYTQKSLSLSPGK
light: DIQLTQSPSFLSASVGDRVTITCRASQDISSYLVWYQQKPGKAPKLLIYAASTLQSGVPSRFSGSGSGTEFTLTISSLQPEDFATYYCQQLNTYPRTFGQGTKVEIKRTVAAPSVFIFPPSDEQLKSGTASVVCLLNNFYPREAKVQWKVDNALQSGNSQESVTEQDSKDSTYSLSSTLTLSKADYEKHKVYACEVTHQGLSSPVTKSFNRGEC
modifications: PSAR10-VA-exatecan linker-payload (Formula XV) on cysteine thiols after full reduction of the antibody (DAR 8 procedure); positions not stated for this ADC
notes: Antibody-drug conjugate of Ab1; also called Ab1-VA-Exatecan
A word on the Kd: it is the constant that tells how readily two partners part at equilibrium. What is called koff is the rate constant with which the complex falls apart. For orientation: kon means the rate constant with which the complex forms. B5: the “Cytotoxicity IC50, OVCAR-3 cells (CellTiter-Glo, 7 days)” value in experiment [7] was found to be 4 nM. Moreover, in experiment [8], the Kd came out at 28.9 nM, the koff turned out to be 0.0342 s⁻¹ and the kon amounted to 1.19e+06 M⁻¹ s⁻¹.
